Experimental data taken from the supplement of paper PMC10065799, “High-throughput profiling of sequence recognition by tyrosine kinases and SH2 domains using bacterial peptide display” (eLife, 2023).

Molecular target: Fes (UniProt P07332)
Assay: phosphorylation enrichment, bacterial display (enrichment ratio); higher = better substrate or ligand; peptides without Tyr show the background
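Note: 11-residue human phosphosite peptides and single-mutation variants displayed on the E. coli surface, counted by deep sequencing, each peptide's frequency after selection divided by its frequency in the unselected input library; frequency after pTyr selection over input frequency; kinase dosed for 20-30% of maximal phosphorylation in three min.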

Sequence of Fes (P07332 whole entry, looked up): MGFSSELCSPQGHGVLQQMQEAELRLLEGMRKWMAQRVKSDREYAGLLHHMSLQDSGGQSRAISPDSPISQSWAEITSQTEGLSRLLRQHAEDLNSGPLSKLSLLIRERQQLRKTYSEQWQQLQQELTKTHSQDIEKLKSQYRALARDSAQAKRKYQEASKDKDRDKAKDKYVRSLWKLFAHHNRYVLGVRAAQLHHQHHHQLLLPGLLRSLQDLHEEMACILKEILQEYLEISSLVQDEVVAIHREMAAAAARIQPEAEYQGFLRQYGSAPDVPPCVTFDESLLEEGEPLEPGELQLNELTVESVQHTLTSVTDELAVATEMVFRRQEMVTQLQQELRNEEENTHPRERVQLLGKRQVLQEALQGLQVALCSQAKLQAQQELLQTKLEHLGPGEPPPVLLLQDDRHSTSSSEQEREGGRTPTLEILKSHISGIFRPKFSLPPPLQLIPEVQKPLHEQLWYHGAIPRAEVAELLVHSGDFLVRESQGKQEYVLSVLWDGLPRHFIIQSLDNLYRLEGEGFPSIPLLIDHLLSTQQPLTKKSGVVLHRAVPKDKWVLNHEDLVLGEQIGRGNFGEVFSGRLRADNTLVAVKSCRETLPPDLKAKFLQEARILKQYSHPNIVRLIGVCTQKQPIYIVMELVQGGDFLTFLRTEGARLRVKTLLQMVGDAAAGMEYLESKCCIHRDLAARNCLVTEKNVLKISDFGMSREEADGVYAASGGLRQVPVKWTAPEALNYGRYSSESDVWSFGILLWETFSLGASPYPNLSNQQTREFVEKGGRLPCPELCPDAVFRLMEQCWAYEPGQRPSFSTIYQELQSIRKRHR

Q: Which phosphorylation enrichment does the source give for VATRWYRSPEP [CDKL5_Y177_L182P] here?
A: Its phosphorylation enrichment is 0.719.

Q: KQRSDYARELE [MYH3_Y1140] was tested. Which phosphorylation enrichment did it give?
A: The phosphorylation enrichment was 0.789.

Q: SGSWSYNTSTE [SELE_Y24_A21S] was tested. Which phosphorylation enrichment did it give?
A: Its phosphorylation enrichment is 1.07.

Q: How did the phosphorylation enrichment turn out when EFISENCGEII [EZH2_Y641_Y641N] was run?
A: The phosphorylation enrichment was 1.1.

Q: Which phosphorylation enrichment does the source give for DRIVNYSRASI [ATP7A_Y1459] here?
A: The phosphorylation enrichment was 0.589.

Q: How did the phosphorylation enrichment turn out when IRKDLYANNVL [ACTA2_Y296] was run?
A: The phosphorylation enrichment was 0.59.

Q: How did the phosphorylation enrichment turn out when TSFSGYRCHRH [NKAPL_Y94_Y96C_YF] was run?
A: The phosphorylation enrichment was 0.727.

Q: For MCITQYERESQ [PRNP_Y218], which phosphorylation enrichment is on record?
A: Its phosphorylation enrichment is 0.895.

Q: Which phosphorylation enrichment does the source give for QTEGEYSSLEH [IDH3B_Y171] here?
A: The phosphorylation enrichment was 1.82.

Q: How did the phosphorylation enrichment turn out when SENAFYLSPDI [COL6A3_Y2827] was run?
A: Its phosphorylation enrichment is 1.21.

Q: With AFDNLYFWDQD [ERBB2_Y1221_YF] as the sequence, how does the phosphorylation enrichment read?
A: Its phosphorylation enrichment is 1.93.

Q: With AELVRYFMEHH [PTPN11_Y80_Q79R_YF] as the sequence, how does the phosphorylation enrichment read?
A: Its phosphorylation enrichment is 0.883.

Q: How did the phosphorylation enrichment turn out when TTIVSYRASQP [MKI67_Y1737_K1734I] was run?
A: The phosphorylation enrichment was 0.663.

Q: How did the phosphorylation enrichment turn out when TRNVRYLTLDI [AKR1C2_Y305_N300T] was run?
A: The phosphorylation enrichment was 0.887.

Q: For FTYDPYSEEDP [IL2RB_Y387], which phosphorylation enrichment is on record?
A: The phosphorylation enrichment was 1.15.

Q: For DVVKDCAFVHM [RBM14_Y114_Y114C], which phosphorylation enrichment is on record?
A: Its phosphorylation enrichment is 0.993.

Molecular target: EPHB2 (UniProt P29323)
Sequence (P29323 whole entry, looked up): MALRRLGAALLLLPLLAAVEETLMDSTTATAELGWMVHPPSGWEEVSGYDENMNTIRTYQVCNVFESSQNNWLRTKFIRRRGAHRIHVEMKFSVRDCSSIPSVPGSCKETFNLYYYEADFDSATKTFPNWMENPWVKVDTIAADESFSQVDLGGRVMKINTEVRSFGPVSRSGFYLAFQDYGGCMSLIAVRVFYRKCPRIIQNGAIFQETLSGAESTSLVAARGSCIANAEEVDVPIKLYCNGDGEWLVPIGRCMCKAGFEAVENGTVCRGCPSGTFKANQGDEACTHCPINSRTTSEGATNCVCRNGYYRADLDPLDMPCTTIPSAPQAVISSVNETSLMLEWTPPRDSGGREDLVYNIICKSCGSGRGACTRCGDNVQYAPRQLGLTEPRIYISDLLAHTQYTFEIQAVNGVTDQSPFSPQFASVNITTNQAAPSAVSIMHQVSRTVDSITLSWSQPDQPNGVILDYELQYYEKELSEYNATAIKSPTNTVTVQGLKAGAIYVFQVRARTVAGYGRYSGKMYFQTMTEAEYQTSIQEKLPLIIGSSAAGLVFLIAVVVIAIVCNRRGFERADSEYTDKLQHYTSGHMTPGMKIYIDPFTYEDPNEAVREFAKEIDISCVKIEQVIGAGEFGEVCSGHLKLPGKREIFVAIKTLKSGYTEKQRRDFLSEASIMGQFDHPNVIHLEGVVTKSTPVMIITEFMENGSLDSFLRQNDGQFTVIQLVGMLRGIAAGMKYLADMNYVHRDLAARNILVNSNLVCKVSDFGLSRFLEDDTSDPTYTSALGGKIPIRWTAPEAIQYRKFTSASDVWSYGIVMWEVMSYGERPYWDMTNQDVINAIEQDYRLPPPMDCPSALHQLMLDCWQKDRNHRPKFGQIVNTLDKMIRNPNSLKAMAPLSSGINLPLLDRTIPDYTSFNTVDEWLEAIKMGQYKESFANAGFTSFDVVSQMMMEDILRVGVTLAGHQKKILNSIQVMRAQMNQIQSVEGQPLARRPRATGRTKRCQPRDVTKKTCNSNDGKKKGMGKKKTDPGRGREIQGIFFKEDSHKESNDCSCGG
Assay: as above

Q: For VATRWYRSPEP [CDKL5_Y177_L182P], which phosphorylation enrichment is on record?
A: Its phosphorylation enrichment is 0.537.

Q: How did the phosphorylation enrichment turn out when KQRSDYARELE [MYH3_Y1140] was run?
A: The phosphorylation enrichment was 0.435.

Q: SGSWSYNTSTE [SELE_Y24_A21S] was tested. Which phosphorylation enrichment did it give?
A: The phosphorylation enrichment was 0.586.

Q: For EFISENCGEII [EZH2_Y641_Y641N], which phosphorylation enrichment is on record?
A: The phosphorylation enrichment was 0.57.

Q: DRIVNYSRASI [ATP7A_Y1459] was tested. Which phosphorylation enrichment did it give?
A: Its phosphorylation enrichment is 0.4.

Q: Which phosphorylation enrichment does the source give for IRKDLYANNVL [ACTA2_Y296] here?
A: Its phosphorylation enrichment is 0.46.

Q: For TSFSGYRCHRH [NKAPL_Y94_Y96C_YF], which phosphorylation enrichment is on record?
A: The phosphorylation enrichment was 0.486.

Q: How did the phosphorylation enrichment turn out when MCITQYERESQ [PRNP_Y218] was run?
A: The phosphorylation enrichment was 0.495.

Q: QTEGEYSSLEH [IDH3B_Y171] was tested. Which phosphorylation enrichment did it give?
A: The phosphorylation enrichment was 1.01.

Q: For SENAFYLSPDI [COL6A3_Y2827], which phosphorylation enrichment is on record?
A: Its phosphorylation enrichment is 0.687.

Q: AFDNLYFWDQD [ERBB2_Y1221_YF] was tested. Which phosphorylation enrichment did it give?
A: Its phosphorylation enrichment is 1.25.

Q: How did the phosphorylation enrichment turn out when AELVRYFMEHH [PTPN11_Y80_Q79R_YF] was run?
A: Its phosphorylation enrichment is 0.526.

Q: TTIVSYRASQP [MKI67_Y1737_K1734I] was tested. Which phosphorylation enrichment did it give?
A: The phosphorylation enrichment was 0.305.

Q: Which phosphorylation enrichment does the source give for TRNVRYLTLDI [AKR1C2_Y305_N300T] here?
A: The phosphorylation enrichment was 0.521.

Q: With FTYDPYSEEDP [IL2RB_Y387] as the sequence, how does the phosphorylation enrichment read?
A: Its phosphorylation enrichment is 0.581.

Q: DVVKDCAFVHM [RBM14_Y114_Y114C] was tested. Which phosphorylation enrichment did it give?
A: The phosphorylation enrichment was 0.535.

Tested on: AncSZ
Assay: as above

Q: Which phosphorylation enrichment does the source give for VATRWYRSPEP [CDKL5_Y177_L182P] here?
A: Its phosphorylation enrichment is 0.638.

Q: Which phosphorylation enrichment does the source give for KQRSDYARELE [MYH3_Y1140] here?
A: Its phosphorylation enrichment is 0.636.

Q: For SGSWSYNTSTE [SELE_Y24_A21S], which phosphorylation enrichment is on record?
A: The phosphorylation enrichment was 0.925.

Q: EFISENCGEII [EZH2_Y641_Y641N] was tested. Which phosphorylation enrichment did it give?
A: The phosphorylation enrichment was 1.31.

Q: Which phosphorylation enrichment does the source give for DRIVNYSRASI [ATP7A_Y1459] here?
A: Its phosphorylation enrichment is 0.538.

Q: For IRKDLYANNVL [ACTA2_Y296], which phosphorylation enrichment is on record?
A: The phosphorylation enrichment was 0.527.

Q: Which phosphorylation enrichment does the source give for TSFSGYRCHRH [NKAPL_Y94_Y96C_YF] here?
A: The phosphorylation enrichment was 0.703.

Q: For MCITQYERESQ [PRNP_Y218], which phosphorylation enrichment is on record?
A: Its phosphorylation enrichment is 0.837.

Q: For QTEGEYSSLEH [IDH3B_Y171], which phosphorylation enrichment is on record?
A: Its phosphorylation enrichment is 1.79.

Q: Which phosphorylation enrichment does the source give for SENAFYLSPDI [COL6A3_Y2827] here?
A: The phosphorylation enrichment was 1.69.

Q: How did the phosphorylation enrichment turn out when AFDNLYFWDQD [ERBB2_Y1221_YF] was run?
A: The phosphorylation enrichment was 2.1.

Q: How did the phosphorylation enrichment turn out when AELVRYFMEHH [PTPN11_Y80_Q79R_YF] was run?
A: Its phosphorylation enrichment is 0.653.

Q: TTIVSYRASQP [MKI67_Y1737_K1734I] was tested. Which phosphorylation enrichment did it give?
A: Its phosphorylation enrichment is 0.591.

Q: Which phosphorylation enrichment does the source give for TRNVRYLTLDI [AKR1C2_Y305_N300T] here?
A: Its phosphorylation enrichment is 0.633.

Q: With FTYDPYSEEDP [IL2RB_Y387] as the sequence, how does the phosphorylation enrichment read?
A: The phosphorylation enrichment was 1.05.

Q: With DVVKDCAFVHM [RBM14_Y114_Y114C] as the sequence, how does the phosphorylation enrichment read?
A: Its phosphorylation enrichment is 0.899.

Molecular target: FGFR3 (UniProt P22607)
Sequence (P22607 whole entry, looked up): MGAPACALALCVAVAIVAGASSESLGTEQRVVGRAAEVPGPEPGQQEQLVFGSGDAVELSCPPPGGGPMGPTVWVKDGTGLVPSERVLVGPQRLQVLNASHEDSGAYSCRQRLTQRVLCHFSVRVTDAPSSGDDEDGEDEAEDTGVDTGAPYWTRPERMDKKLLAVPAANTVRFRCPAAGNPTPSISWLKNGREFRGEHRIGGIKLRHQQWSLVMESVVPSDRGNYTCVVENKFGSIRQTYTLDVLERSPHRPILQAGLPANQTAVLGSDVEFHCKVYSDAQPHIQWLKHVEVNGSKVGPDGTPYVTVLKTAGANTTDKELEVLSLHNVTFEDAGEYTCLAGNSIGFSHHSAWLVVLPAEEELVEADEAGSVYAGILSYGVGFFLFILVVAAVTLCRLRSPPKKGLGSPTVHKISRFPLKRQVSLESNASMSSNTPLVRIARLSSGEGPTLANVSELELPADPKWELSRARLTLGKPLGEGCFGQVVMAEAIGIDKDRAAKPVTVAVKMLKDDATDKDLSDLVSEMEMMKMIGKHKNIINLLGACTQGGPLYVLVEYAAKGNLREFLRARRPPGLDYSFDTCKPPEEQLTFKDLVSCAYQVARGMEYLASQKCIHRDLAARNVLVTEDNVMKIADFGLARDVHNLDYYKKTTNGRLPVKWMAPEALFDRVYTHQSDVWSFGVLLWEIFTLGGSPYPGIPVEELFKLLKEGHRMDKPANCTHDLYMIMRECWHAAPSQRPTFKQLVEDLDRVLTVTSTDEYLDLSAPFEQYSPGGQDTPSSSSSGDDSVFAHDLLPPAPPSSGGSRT
Assay: as above

Q: How did the phosphorylation enrichment turn out when VATRWYRSPEP [CDKL5_Y177_L182P] was run?
A: Its phosphorylation enrichment is 0.523.

Q: Which phosphorylation enrichment does the source give for KQRSDYARELE [MYH3_Y1140] here?
A: Its phosphorylation enrichment is 0.481.

Q: SGSWSYNTSTE [SELE_Y24_A21S] was tested. Which phosphorylation enrichment did it give?
A: The phosphorylation enrichment was 0.768.

Q: EFISENCGEII [EZH2_Y641_Y641N] was tested. Which phosphorylation enrichment did it give?
A: Its phosphorylation enrichment is 0.706.

Q: How did the phosphorylation enrichment turn out when DRIVNYSRASI [ATP7A_Y1459] was run?
A: The phosphorylation enrichment was 0.426.

Q: How did the phosphorylation enrichment turn out when IRKDLYANNVL [ACTA2_Y296] was run?
A: The phosphorylation enrichment was 0.564.

Q: TSFSGYRCHRH [NKAPL_Y94_Y96C_YF] was tested. Which phosphorylation enrichment did it give?
A: The phosphorylation enrichment was 0.45.

Q: MCITQYERESQ [PRNP_Y218] was tested. Which phosphorylation enrichment did it give?
A: Its phosphorylation enrichment is 0.557.

Q: With QTEGEYSSLEH [IDH3B_Y171] as the sequence, how does the phosphorylation enrichment read?
A: The phosphorylation enrichment was 0.874.

Q: How did the phosphorylation enrichment turn out when SENAFYLSPDI [COL6A3_Y2827] was run?
A: The phosphorylation enrichment was 0.841.

Q: How did the phosphorylation enrichment turn out when AFDNLYFWDQD [ERBB2_Y1221_YF] was run?
A: Its phosphorylation enrichment is 6.95.

Q: For AELVRYFMEHH [PTPN11_Y80_Q79R_YF], which phosphorylation enrichment is on record?
A: Its phosphorylation enrichment is 0.471.

Q: For TTIVSYRASQP [MKI67_Y1737_K1734I], which phosphorylation enrichment is on record?
A: Its phosphorylation enrichment is 0.477.

Q: With TRNVRYLTLDI [AKR1C2_Y305_N300T] as the sequence, how does the phosphorylation enrichment read?
A: Its phosphorylation enrichment is 0.634.

Q: With FTYDPYSEEDP [IL2RB_Y387] as the sequence, how does the phosphorylation enrichment read?
A: The phosphorylation enrichment was 0.822.

Q: For DVVKDCAFVHM [RBM14_Y114_Y114C], which phosphorylation enrichment is on record?
A: The phosphorylation enrichment was 0.623.
